According to PMC3616739:
pKd: −log10 of the molar value. “And” between values parts separate entries of the source, which are not always exact repeats. Equal values may be shown once.

Molecular target: GST-LEDGF PWWP (1–100) (UniProt O75475)
Assay: pull-down

Chain of GST-LEDGF PWWP (1–100) (O75475 1-100): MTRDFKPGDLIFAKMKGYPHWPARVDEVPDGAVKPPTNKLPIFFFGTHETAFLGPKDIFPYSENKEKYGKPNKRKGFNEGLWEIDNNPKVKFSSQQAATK

- pKd: 6.63 and 6.99
Substance: native mononucleosomes (MNs) from SupT1 cells (from UniProt P0C0S8;P62807;P68431;P62805) (complex)
